Laboratory results reported in doi:10.1101/2021.07.23.453482 (bioRxiv, 2021).

Molecular target: the molecule itself
Assay: SEC-MALS

Protein | stoichiometry N
BT3057^4S-Gal/GalNAc (enzyme, Bacteroides thetaiotaomicron, UniProt Q8A397 1-508, looked up) QERPNIIVFLVDDMGLMDTSVPFIADESGQPVRHPLNDWYHTPNMERLAKQGICFSTFYAQSVSSPSRASIMTGQNATRHGVTNWINAESNNRNPFGPPQWNWKGLRKDMPTMPRVLQQAGYKTIHVGKAHFGCMGSEGENPLNIGFDVNIAGSGIGHPGSYYGEWGYGHIKGQKIRAVPDLEKYHGTDTFLSEALTIEANREITKAVEEKRPFYLNMAHYAVHSPFQADKRFLSRYTDPDKNEQARAFATLIEGMDKSLGDIMDQLEKLGIAENTLILFLGDNGGDAPLGDERGYGSSAPLRGKKGTEFEGGMRVPFIAAWAKPEKKSKVQKNLPIEVGSMQTQLGTIMDIYPTVLSVAGCEVPQNYVIDGFDLKKQLSGKVDKKRPESFLMHFPHAHRGSYFTTYRMGDWKLIYYYLPETPKQPKALLYNLKDDPEERNELSAAHPDQCREMIREMSARLEKEGALYPVDKQGNELKPFVYF | 2
BT3796^4S-Gal/GalNAc (enzyme) QTQKSAQTQRVDKRPNIILFMVDDMGWQDTSLPFWTQKTDYNKLYETPNMERLAKQGMMFTQAYASSISSPTRCSLITGTNAARHRVTNWTLQKNTKTDRKDKVLDVPDWNYNGVSQVPGTNNTFVGTSFVQLLKDSGYHTIHCGKAHFGAIDTPGEDPHHWGFEVNIAGHAAGGLASYLGEENYGHNKDGKPISLMAVPGLEKYWGTETFVTEALTLEAIKALNKAKKYNQPFYLYMSQYAIHVPLDKDKRFYDKYKKKGMTDHEAAYATLIEGMDKSLGDLMDWLEKSGEADNTIIIFMSDNGGLAAESYWRDGKLHTQNHPLNSGKGSTYEGGIREPMIVSWPGVVAPGSKCNDYLLIEDFYPTILEMAGIKKYKTVQPIDGISFMPLLKQTRNPSKGRSLFWNMPNNWGNDGPGINFNCAVRKGDWKLIYYYGTGKKELFNIPDDIGESNDLSAQHPDIVKRLSKELGTYLRKVDAQRPTVKATGKPCPWPDEIK | 2
